What all share (format): binding
The target of one assay is T1, CUL4B (Homo sapiens, UniProt Q13620, L520D/V516R).
T1 construct: GST-TEV (N, cleaved yes); made in house; host or cells: E. coli BL21 CodonPlus
T1 sequence (Q13620 206-557 V516R/L520D): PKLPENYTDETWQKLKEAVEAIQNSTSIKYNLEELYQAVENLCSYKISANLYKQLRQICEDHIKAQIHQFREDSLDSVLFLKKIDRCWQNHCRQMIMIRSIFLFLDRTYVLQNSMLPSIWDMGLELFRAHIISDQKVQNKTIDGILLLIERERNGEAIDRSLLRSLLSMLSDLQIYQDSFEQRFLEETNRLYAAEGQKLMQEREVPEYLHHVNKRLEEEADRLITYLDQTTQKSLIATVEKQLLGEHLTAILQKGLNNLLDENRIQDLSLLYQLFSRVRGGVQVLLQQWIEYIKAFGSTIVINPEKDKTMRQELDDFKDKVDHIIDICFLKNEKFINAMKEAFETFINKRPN
Briefly: Naive Library Presenter Screening (phage, NGS), CUL4B. The conditions noted are these: for interaction data at Target Concentration 10: CUL4B target concentration 10 nM; for interaction data at Target Concentration 30: CUL4B target concentration 30 nM; for interaction data at Target Concentration 100: CUL4B target concentration 100 nM; for interaction data at Target Concentration 300: CUL4B target concentration 300 nM; for interaction data at Target Concentration 1000: CUL4B target concentration 1000 nM.

The target in another assay is T2, CUL5 (Homo sapiens, UniProt Q93034, L345D/V341R).
T2 construct: GST-TEV (N, cleaved yes); made in house; host or cells: E. coli BL21 CodonPlus
T2 sequence (Q93034 1-386 V341R/L345D): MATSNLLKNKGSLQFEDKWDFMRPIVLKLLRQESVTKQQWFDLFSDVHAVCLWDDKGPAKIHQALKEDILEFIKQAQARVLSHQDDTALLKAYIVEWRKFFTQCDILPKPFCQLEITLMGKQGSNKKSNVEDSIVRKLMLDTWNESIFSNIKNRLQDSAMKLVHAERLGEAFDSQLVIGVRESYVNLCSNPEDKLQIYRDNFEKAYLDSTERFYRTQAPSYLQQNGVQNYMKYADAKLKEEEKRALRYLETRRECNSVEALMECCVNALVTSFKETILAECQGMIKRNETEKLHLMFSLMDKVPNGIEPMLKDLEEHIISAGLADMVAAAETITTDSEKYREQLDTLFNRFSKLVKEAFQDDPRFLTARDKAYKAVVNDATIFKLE
As to the kind of experiment: Naive Library Presenter Screening (phage, NGS), CUL5. The conditions noted are these: for interaction data at Target Concentration 10: CUL5 target concentration 10 nM; for interaction data at Target Concentration 30: CUL5 target concentration 30 nM; for interaction data at Target Concentration 100: CUL5 target concentration 100 nM; for interaction data at Target Concentration 300: CUL5 target concentration 300 nM; for interaction data at Target Concentration 1000: CUL5 target concentration 1000 nM.

The next assay deals with T3, FBXW7-SKP1 (Homo sapiens, UniProt Q969H0).
T3 construct: FBXW7 (Uniprot ID: Q969H0, residues 263-706) with an N-terminal GST-TEV tag and C-terminal AVI tag; GST-TEV (N); made in house; host or cells: E. coli BL21 (DE3)
T3 sequence (Q969H0 263-706): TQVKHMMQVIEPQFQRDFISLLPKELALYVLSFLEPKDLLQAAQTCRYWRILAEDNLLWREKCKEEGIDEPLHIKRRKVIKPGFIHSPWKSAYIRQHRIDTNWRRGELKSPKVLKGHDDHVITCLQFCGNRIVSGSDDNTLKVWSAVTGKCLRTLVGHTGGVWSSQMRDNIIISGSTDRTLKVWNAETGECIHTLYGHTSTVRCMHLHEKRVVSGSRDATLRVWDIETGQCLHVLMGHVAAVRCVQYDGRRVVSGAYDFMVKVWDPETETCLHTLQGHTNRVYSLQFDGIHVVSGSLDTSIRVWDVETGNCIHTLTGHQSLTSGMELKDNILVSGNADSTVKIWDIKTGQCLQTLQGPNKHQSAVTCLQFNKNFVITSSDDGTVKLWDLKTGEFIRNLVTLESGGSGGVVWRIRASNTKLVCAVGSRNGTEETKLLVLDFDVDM
T3 sequence (P63208 whole entry partner, the tested form may be a part): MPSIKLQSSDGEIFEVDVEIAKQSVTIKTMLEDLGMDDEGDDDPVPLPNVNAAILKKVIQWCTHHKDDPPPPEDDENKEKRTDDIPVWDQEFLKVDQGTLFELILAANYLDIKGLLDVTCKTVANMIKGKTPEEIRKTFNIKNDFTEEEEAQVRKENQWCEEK
As to the kind of experiment: Naive Library Presenter Screening (phage, NGS), FBXW7-SKP1. Particulars: for interaction data at Target Concentration 10: FBXW7 target concentration 10 nM; for interaction data at Target Concentration 30: FBXW7 target concentration 30 nM; for interaction data at Target Concentration 100: FBXW7 target concentration 100 nM; for interaction data at Target Concentration 300: FBXW7 target concentration 300 nM; for interaction data at Target Concentration 1000: FBXW7 target concentration 1000 nM. The procedure:
To conduct phage library screening, previously described procedures were utilized in accordance with the present disclosure.
Next-generation sequencing was performed as described in accordance with the present disclosure.
Hit ID and Clustering is performed according to a described procedure in accordance with the present disclosure.

Ends that are not written are not given here.

As to DPADRLCELAAWVCQSF, in the assay with CUL4B, the “interaction data at Target Concentration 10” value turned out to be 0, the “interaction data at Target Concentration 30” value was found to be 0, the “interaction data at Target Concentration 100” value worked out at 0 and the “interaction data at Target Concentration 300” value is 48. Besides, the “interaction data at Target Concentration 1000” value with CUL4B (first column) was determined as 9. Moreover, the “interaction data at Target Concentration 1000” value in the assay with CUL4B (second column) was 0.

With DPADRQCIFAAWMCEAF, in the assay with CUL4B, the “interaction data at Target Concentration 10” value is given as 0, the “interaction data at Target Concentration 30” value is recorded as 0, the “interaction data at Target Concentration 100” value turned out to be 3 and the “interaction data at Target Concentration 300” value stood at 9. Also, in the assay with CUL4B (first column), the “interaction data at Target Concentration 1000” value was found to be 34. Besides, in the assay with CUL4B (second column), the “interaction data at Target Concentration 1000” value was found to be 0.

As for DPADRQCLFAAWYCEHT, in the assay with CUL4B, the “interaction data at Target Concentration 10” value came to 0, the “interaction data at Target Concentration 30” value was found to be 10, the “interaction data at Target Concentration 100” value is 0 and the “interaction data at Target Concentration 300” value was 6. Further, in the assay with CUL4B (first column), the “interaction data at Target Concentration 1000” value was 11. Further, the “interaction data at Target Concentration 1000” value with CUL4B (second column) was determined as 2.

For the sequence DPADRWCELAAWICDEF, in the assay with CUL4B, the “interaction data at Target Concentration 10” value turned out to be 0, the “interaction data at Target Concentration 30” value came to 0, the “interaction data at Target Concentration 100” value was 0 and the “interaction data at Target Concentration 300” value came out at 6. The “interaction data at Target Concentration 1000” value with CUL4B (first column) was 17. Also, in the assay with CUL4B (second column), the “interaction data at Target Concentration 1000” value turned out to be 0.

In the case of DPAIQQCAEAAWSCYVE, in the assay with CUL5, the “interaction data at Target Concentration 10” value is 0, the “interaction data at Target Concentration 30” value stood at 13, the “interaction data at Target Concentration 100” value is listed as 30 and the “interaction data at Target Concentration 300” value worked out at 40. Also, in the assay with CUL5 (first column), the “interaction data at Target Concentration 1000” value was 14. The “interaction data at Target Concentration 1000” value in the assay with CUL5 (second column) worked out at 0.

DPATFACANAAWECYAR: in the assay with CUL5, the “interaction data at Target Concentration 10” value is 0, the “interaction data at Target Concentration 30” value was determined as 6, the “interaction data at Target Concentration 100” value was 25 and the “interaction data at Target Concentration 300” value was 11. In addition, the “interaction data at Target Concentration 1000” value in the assay with CUL5 (first column) stood at 35. In the assay with CUL5 (second column), the “interaction data at Target Concentration 1000” value came out at 0.

Take DPATYFCYDAAELCDWW: in the assay with FBXW7-SKP1, the “interaction data at Target Concentration 10” value was found to be 0, the “interaction data at Target Concentration 30” value came out at 0, the “interaction data at Target Concentration 100” value is recorded as 1 and the “interaction data at Target Concentration 300” value stood at 5. The “interaction data at Target Concentration 1000” value with FBXW7-SKP1 (first column) was found to be 5. Also, in the assay with FBXW7-SKP1 (second column), the “interaction data at Target Concentration 1000” value was determined as 82.

Consider DPAWAICAEAAWDCFMI, for which, in the assay with CUL5, the “interaction data at Target Concentration 10” value worked out at 0, the “interaction data at Target Concentration 30” value is 14, the “interaction data at Target Concentration 100” value is 13 and the “interaction data at Target Concentration 300” value was 58. Also, the “interaction data at Target Concentration 1000” value with CUL5 (first column) was determined as 11. The “interaction data at Target Concentration 1000” value in the assay with CUL5 (second column) is 0.

DPAWFDCAEAAWQCVFI: in the assay with CUL5, the “interaction data at Target Concentration 10” value came to 2, the “interaction data at Target Concentration 30” value is 35, the “interaction data at Target Concentration 100” value came out at 91 and the “interaction data at Target Concentration 300” value was 170. Besides, the “interaction data at Target Concentration 1000” value with CUL5 (first column) is 31. The “interaction data at Target Concentration 1000” value with CUL5 (second column) worked out at 0.

In the case of DPAWFTCAQAAWDCVFH, in the assay with CUL5, the “interaction data at Target Concentration 10” value stood at 0, the “interaction data at Target Concentration 30” value stood at 65 and the “interaction data at Target Concentration 300” value came to 96. For the same sequence, the “interaction data at Target Concentration 1000” value with CUL5 (first column) worked out at 224. The “interaction data at Target Concentration 1000” value in the assay with CUL5 (second column) is 0.

Regarding “DPAWHMCAEAAWQCAFW (not fully specified (C-terminus, bridges); cysteine pairing not given here)”, in the assay with CUL5, the “interaction data at Target Concentration 10” value is on record as 5, the “interaction data at Target Concentration 30” value was determined as 61, the “interaction data at Target Concentration 100” value is on record as 106 and the “interaction data at Target Concentration 300” value was determined as 119. In addition, the “interaction data at Target Concentration 1000” value with CUL5 (first column) was 152. In the assay with CUL5 (second column), the “interaction data at Target Concentration 1000” value came to 0.

As for DPAWMRCATAAWECVMT, in the assay with CUL5, the “interaction data at Target Concentration 10” value was found to be 16, the “interaction data at Target Concentration 30” value is listed as 22, the “interaction data at Target Concentration 100” value turned out to be 151 and the “interaction data at Target Concentration 300” value was found to be 104. In the assay with CUL5 (second column), the “interaction data at Target Concentration 1000” value was determined as 0.

As for DPAWMTCATAAWECYLA, in the assay with CUL5, the “interaction data at Target Concentration 10” value is given as 6, the “interaction data at Target Concentration 30” value is 6, the “interaction data at Target Concentration 100” value was 62 and the “interaction data at Target Concentration 300” value came out at 48. Moreover, the “interaction data at Target Concentration 1000” value in the assay with CUL5 (first column) came to 55. For the same sequence, the “interaction data at Target Concentration 1000” value with CUL5 (second column) was found to be 0.

As to “DPAWQWCAEAAWQCITH (not fully specified (C-terminus, bridges); cysteine pairing not given here)”, in the assay with CUL5, the “interaction data at Target Concentration 10” value worked out at 14, the “interaction data at Target Concentration 30” value is recorded as 59, the “interaction data at Target Concentration 100” value was determined as 284 and the “interaction data at Target Concentration 300” value came to 284. Moreover, in the assay with CUL5 (first column), the “interaction data at Target Concentration 1000” value worked out at 265. The “interaction data at Target Concentration 1000” value with CUL5 (second column) came to 0.

For the sequence DPAWRACAQAAWDCIIA, in the assay with CUL5, the “interaction data at Target Concentration 10” value was determined as 1, the “interaction data at Target Concentration 30” value came out at 167, the “interaction data at Target Concentration 100” value is recorded as 267 and the “interaction data at Target Concentration 300” value was 385. Also, the “interaction data at Target Concentration 1000” value with CUL5 (first column) came to 368. Further, in the assay with CUL5 (second column), the “interaction data at Target Concentration 1000” value is given as 0.

DPAWRECAHAAWQCYIQ: in the assay with CUL5, the “interaction data at Target Concentration 10” value is reported as 0, the “interaction data at Target Concentration 30” value is listed as 50, the “interaction data at Target Concentration 100” value is reported as 47 and the “interaction data at Target Concentration 300” value was 21. Also, in the assay with CUL5 (first column), the “interaction data at Target Concentration 1000” value was found to be 93. Besides, the “interaction data at Target Concentration 1000” value in the assay with CUL5 (second column) was 0.

With DPAWWECAEAAWQCQVL, in the assay with CUL5, the “interaction data at Target Concentration 10” value was 0, the “interaction data at Target Concentration 30” value came to 6, the “interaction data at Target Concentration 100” value came to 44 and the “interaction data at Target Concentration 300” value stood at 20. The “interaction data at Target Concentration 1000” value in the assay with CUL5 (first column) was 59. Further, in the assay with CUL5 (second column), the “interaction data at Target Concentration 1000” value is given as 0.

Take DPAWYECASAAWVCYSM: in the assay with CUL5, the “interaction data at Target Concentration 10” value is 0, the “interaction data at Target Concentration 30” value came to 13, the “interaction data at Target Concentration 100” value is on record as 94 and the “interaction data at Target Concentration 300” value is given as 60. Moreover, in the assay with CUL5 (first column), the “interaction data at Target Concentration 1000” value is 171. Also, in the assay with CUL5 (second column), the “interaction data at Target Concentration 1000” value was determined as 0.

On to DPAYFSCEDAAELCEWY, for which, in the assay with FBXW7-SKP1, the “interaction data at Target Concentration 10” value was 0, the “interaction data at Target Concentration 30” value amounted to 0, the “interaction data at Target Concentration 100” value came to 1 and the “interaction data at Target Concentration 300” value was 3. Moreover, the “interaction data at Target Concentration 1000” value with FBXW7-SKP1 (first column) came to 13. Also, the “interaction data at Target Concentration 1000” value with FBXW7-SKP1 (second column) amounted to 38.

Consider DPAYYVCAEAAWNCLFE, for which, in the assay with CUL5, the “interaction data at Target Concentration 10” value turned out to be 4, the “interaction data at Target Concentration 30” value was 46, the “interaction data at Target Concentration 100” value was determined as 104 and the “interaction data at Target Concentration 300” value turned out to be 100. The “interaction data at Target Concentration 1000” value in the assay with CUL5 (first column) was 76. Further, the “interaction data at Target Concentration 1000” value in the assay with CUL5 (second column) stood at 0.
